For assay [1], the target named is regulatory p85α subunit of bovine PI 3-kinase (recombinant, GST part removed with thrombin) (bovine) (UniProt P23727). In words: SPR competition: soluble peptide against the same peptide immobilised, 100 nM p85α.
Assay [2] has as its target GST fusion protein containing amino acids 449-664 of rat IRS-1 (rIRS-1 449-664), not phosphorylated (rat) (UniProt P35570). In words: cell-based or functional assay.
Assay [3] has as its target rIRS-1 449-664 GST fusion protein, phosphorylated in vitro by PKC from rat brain (rat) (UniProt P35570). Nature of the assay: cell-based or functional assay.
Assay [4] has as its target rIRS-1 449-664 GST fusion protein, phosphorylated in vitro by PKC-ζ (rat) (UniProt P35570). Nature of the assay: cell-based or functional assay.
Assay [5] deals with rIRS-1 449-664 S570A GST fusion protein, pretreated with PKC-ζ (rat) (UniProt P35570). In words: cell-based or functional assay.
Assay [6] addresses rIRS-1 449-664 S612A GST fusion protein, pretreated with PKC-ζ (rat) (UniProt P35570). In words: cell-based or functional assay.
In assay [7] the target is rIRS-1 449-664 S570A GST fusion protein, pretreated with PKC-ζ and then tyrosine phosphorylated by insulin receptor (rat) (UniProt P35570). Nature of the assay: GST pull-down, anti-p85α immunoblot quantified; relative to the insulin-stimulated control value set as 100%.
Assay [8] deals with rIRS-1 449-664 S612A GST fusion protein, pretreated with PKC-ζ and then tyrosine phosphorylated by insulin receptor (rat) (UniProt P35570). The description is as above.
Assay [9] deals with rIRS-1 449-664 GST fusion protein, pretreated with PKC-ζ and then tyrosine phosphorylated by insulin receptor (rat) (UniProt P35570). In words: GST pull-down, anti-p85α immunoblot quantified; against the insulin-stimulated value without PKC-ζ set as 100%.
Assay [10] concerns the target rIRS-1 449-664 GST fusion protein, pretreated with PKC from rat brain and then tyrosine phosphorylated by insulin receptor (rat) (UniProt P35570). Nature of the assay: GST pull-down, anti-p85α immunoblot quantified; against the insulin-stimulated value without PKC-rb set as 100%.

Experimental findings from patent EP1508806A1 are described below.

UniProt P23727, sequence (P23727 whole entry, the tested form may be a part): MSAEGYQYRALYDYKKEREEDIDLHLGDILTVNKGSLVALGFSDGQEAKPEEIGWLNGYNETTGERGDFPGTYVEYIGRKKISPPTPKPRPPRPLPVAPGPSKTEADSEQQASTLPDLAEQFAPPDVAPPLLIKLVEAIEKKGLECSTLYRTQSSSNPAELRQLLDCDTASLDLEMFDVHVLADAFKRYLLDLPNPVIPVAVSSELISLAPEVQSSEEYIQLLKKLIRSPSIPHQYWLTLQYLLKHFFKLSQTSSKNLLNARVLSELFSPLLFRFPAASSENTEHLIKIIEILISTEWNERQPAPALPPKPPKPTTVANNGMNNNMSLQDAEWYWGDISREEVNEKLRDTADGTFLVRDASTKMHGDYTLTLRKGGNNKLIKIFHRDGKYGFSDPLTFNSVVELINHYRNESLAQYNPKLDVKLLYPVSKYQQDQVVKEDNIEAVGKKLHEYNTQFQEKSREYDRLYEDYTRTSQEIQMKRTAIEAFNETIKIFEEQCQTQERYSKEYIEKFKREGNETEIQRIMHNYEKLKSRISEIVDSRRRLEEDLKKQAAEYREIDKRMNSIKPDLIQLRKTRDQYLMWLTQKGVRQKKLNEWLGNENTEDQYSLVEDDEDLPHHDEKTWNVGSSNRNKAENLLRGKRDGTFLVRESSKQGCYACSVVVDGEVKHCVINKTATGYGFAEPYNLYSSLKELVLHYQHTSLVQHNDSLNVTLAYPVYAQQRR

With “IRS-1 peptide pY608, DDGpYMPMSPGV (amino acids 605 to 615 of rat IRS-1, phosphotyrosine 608)”, the peptide concentration for complete inhibition in [1] was 10 µM.
As to “IRS-1 peptide pY608-pS612, DDGpYMPMpSPGV (amino acids 605 to 615 of rat IRS-1, phosphotyrosine 608 and phosphoserine 612)”, the peptide concentration for complete inhibition in [1] is 10 µM.
Substance “insulin receptor, WGA-purified from rat liver, insulin-stimulated and autophosphorylated (from UniProt P15127 27-1383)” registered an insulin-stimulated tyrosine phosphorylation of rIRS-1^449-664 (anti-phosphotyrosine immunoblot) in [2] of 8.8 fold. Also, the reduction of insulin-stimulated Tyr-phosphorylation of rIRS-1^449-664 after PKC-rb pretreatment in [3] stood at 27%. In addition, the inhibition of tyrosine phosphorylation of rIRS-1^449-664 after PKC-ζ pretreatment in assay [4] is 46%. The reduction of tyrosine phosphorylation by IR after PKC-ζ pretreatment in assay [4], in [5] and in [6] was 30 to 40% in each case.
“regulatory p85α subunit of bovine PI 3-kinase (recombinant, GST part removed with thrombin) (from UniProt P23727 1-724)”: the p85α binding, percent of control in assay [7] was 43%; in assay [8], 28%. Further, the percent inhibition of p85α binding in assay [9] came out at 81%. Besides, the percent inhibition of the association of p85α in assay [10] stood at 49%.
